Data taken from patent US20190309025A1.

Assays:
[1] = target: BzHuKD VLPs (Zika virus BPH2015 VLPs with E106/107 GL to KD, expressed by plasmid pEBZHu2-3 KD) (Zika virus strain BPH2015); assay: ratio of antibody end-point titers on wt and KD VLPs
[2] = target: MR766KD VLPs (Zika virus MR766 VLPs with E106/107 GL to KD, expressed by plasmid pEZMRprME KD) (Zika virus strain MR766) (UniProt Q32ZE1); assay: as above
[3] = target: BzHuwt VLPs (Zika virus BPH2015 prM and E VLPs expressed by plasmid pEBZHu2-3, pr1-Ala deletion clone) (Zika virus strain BPH2015); assay: antibody end-point titration on VLPs (COS-1 supernatant)
[4] = target: MR766wt VLPs (Zika virus MR766 prM and E virus-like particles expressed by plasmid pEZMRprME1-8) (Zika virus strain MR766) (UniProt Q32ZE1); assay: as above

For “flavivirus group-cross reactive murine monoclonal antibody 4G2”, the Fold changes (BzHuwt VLPs against BzHuKD VLPs) [1] was > 729 fold, the Fold changes (MR766wt VLPs against MR766KD VLPs) [2] was > 2190 fold and the Antibody end-point titers [3] was 729000. For the same substance, the Antibody end-point titers [4] was > 2.19e+06.
